What all share (assay): fluorescence polarization
Background: Polarisation of emitted light reports the rotation of a fluorescent probe.

The target of data set [1] is dK50dM51 E19A (UniProt P09012 10-89, E19A;del50-51).
Data set [2] has as its target U1A E19A:Y13Q (UniProt P09012 10-89, Y13Q;E19A).
Data set [3] concerns the target U1A E19S:F56A (UniProt P09012 10-89, E19S;F56A).
Data set [4] addresses dK50dM51 E19F (UniProt P09012 10-89, E19F;del50-51).
In data set [5] the target is U1A S46A (UniProt P09012 10-89, S46A).
Data set [6] concerns the target dK50dM51 S46A (UniProt P09012 10-89, S46A;del50-51).
Data set [7] concerns the target U1A M51A:F56A (UniProt P09012 10-89, M51A;F56A).
The target in data set [8] is U1A E19S:Y13Q (UniProt P09012 10-89, Y13Q;E19S).
In data set [9] the target is U1A N15A (UniProt P09012 10-89, N15A).
Data set [10] deals with U1A E19F:F56A (UniProt P09012 10-89, E19F;F56A).
Data set [11] deals with U1A L49A (UniProt P09012 10-89, L49A).
The target of data set [12] is U1A M51F (UniProt P09012 10-89, M51F).
The target in data set [13] is U1A E19N (UniProt P09012 10-89, E19N).
Data set [14] concerns the target U1A N16A (UniProt P09012 10-89, N16A).
The target of data set [15] is U1A E19A:N15V (UniProt P09012 10-89, N15V;E19A).
Data set [16] has as its target U1A M51A:N15V (UniProt P09012 10-89, N15V;M51A).
The target in data set [17] is dK50dM51 E19K (UniProt P09012 10-89, E19K;del50-51).
Data set [18] deals with U1A L49A:F56A (UniProt P09012 10-89, L49A;F56A).
For data set [19], the target named is U1A M51K (UniProt P09012 10-89, M51K).
Data set [20] concerns the target U1A E19F (UniProt P09012 10-89, E19F).
Data set [21] deals with U1A E19F:N15V (UniProt P09012 10-89, N15V;E19F).
Data set [22] addresses U1A M51S (UniProt P09012 10-89, M51S).
Data set [23] has as its target U1A E19S (UniProt P09012 10-89, E19S).
Data set [24] addresses U1A M51A:Y13Q (UniProt P09012 10-89, Y13Q;M51A).

For orientation: Kd means the equilibrium constant for the complex coming apart. GGCAGAUCUGAGCCUGGGAGCUCUCUGCC (structured_RNA) [TAR RNA]: the Kd is 10.2 ± 2.2 µM in data set [1]; 21.7 ± 5.3 µM in data set [2]; 19.2 ± 1.4 µM in data set [3]; 12.6 ± 1.8 µM in data set [4]; 15.1 ± 2.6 µM in [5]; 24.5 ± 6 µM in data set [6]. Moreover, the Kd in data set [7] was 177 ± 98.2 µM; in [8], 10.3 ± 2.8 µM; in [9], 11.7 ± 0.9 µM; in [10] it was 20.9 ± 3.3 µM; in data set [11] it was 5.2 ± 0.5 µM; in data set [12] it was 16.4 ± 2.3 µM. The Kd is 12 ± 0.9 µM in data set [13]; 8.8 ± 1.4 µM in data set [14]; 14.2 ± 1.4 µM in data set [15]; 46 ± 13.4 µM in data set [16]; 6.3 ± 1 µM in data set [17]; 123 ± 38.7 µM in data set [18]. The Kd turned out to be 7.7 ± 0.5 µM in [19]; 6.2 ± 0.8 µM in [20]; 19 ± 2.5 µM in [21]; 29.9 ± 5.7 µM in [22]; 4.1 ± 0.3 µM in [23]; 210 ± 84.3 µM in data set [24].

Values taken from article PMC4414246.
